From the Human Domainome abundance scans (Beltran et al. 2025)
± gives the uncertainty stated by the source.

B1: Death-inducer obliterator 1, residues 263 to 321; numbered along this chain, Q9BTC0 (parent)
chain: GYDPNALYCICRQPHNNRFMICCDRCEEWFHGDCVGISEARGRLLERNGEDYICPNCTI

Variants of: B1
Assay: abundance fitness (aPCA) (normalised: wild type 0, dead -1); higher = more abundant; growth selection in yeast, the domain comes from the species named
Details: Homo sapiens

| Variant | abundance fitness |
| --- | --- |
| GYDPNALYCICRQPHNNRFMICCDRCEEWFHGDCVGISEARLRLLERNGEDYICPNCTI | 0.062 ± 0.048 |
| GYDPNALYCICRQPHNNRFMICCDRCEEWFHGDCVGISEARMRLLERNGEDYICPNCTI | 0.096 ± 0.067 |
| GYDPNALYCICRQPHNNRFMICCDRCEEWFHGDCVGISEARNRLLERNGEDYICPNCTI | 0.334 ± 0.17 |
| GYDPNALYCICRQPHNNRFMICCDRCEEWFHGDCVGISEARPRLLERNGEDYICPNCTI | -0.151 ± 0.11 |
| GYDPNALYCICRQPHNNRFMICCDRCEEWFHGDCVGISEARQRLLERNGEDYICPNCTI | 0.048 ± 0.13 |
| GYDPNALYCICRQPHNNRFMICCDRCEEWFHGDCVGISEARRRLLERNGEDYICPNCTI | 0.315 ± 0.073 |
| GYDPNALYCICRQPHNNRFMICCDRCEEWFHGDCVGISEARSRLLERNGEDYICPNCTI | -0.051 ± 0.13 |
| GYDPNALYCICRQPHNNRFMICCDRCEEWFHGDCVGISEARTRLLERNGEDYICPNCTI | 0.017 ± 0.093 |
| GYDPNALYCICRQPHNNRFMICCDRCEEWFHGDCVGISEARVRLLERNGEDYICPNCTI | 0.069 ± 0.072 |
| GYDPNALYCICRQPHNNRFMICCDRCEEWFHGDCVGISEARWRLLERNGEDYICPNCTI | 0.29 ± 0.086 |
| GYDPNALYCICRQPHNNRFMICCDRCEEWFHGDCVGISEARYRLLERNGEDYICPNCTI | 0.067 ± 0.082 |
| GYDPNALYCICRQPHNNRFMICCDRCEEWFHGDCVGISEARGALLERNGEDYICPNCTI | 0.143 ± 0.15 |
| GYDPNALYCICRQPHNNRFMICCDRCEEWFHGDCVGISEARGCLLERNGEDYICPNCTI | 0.188 ± 0.13 |
| GYDPNALYCICRQPHNNRFMICCDRCEEWFHGDCVGISEARGDLLERNGEDYICPNCTI | -0.292 ± 0.2 |
| GYDPNALYCICRQPHNNRFMICCDRCEEWFHGDCVGISEARGELLERNGEDYICPNCTI | 0.133 ± 0.12 |
| GYDPNALYCICRQPHNNRFMICCDRCEEWFHGDCVGISEARGFLLERNGEDYICPNCTI | -0.318 ± 0.097 |
| GYDPNALYCICRQPHNNRFMICCDRCEEWFHGDCVGISEARGGLLERNGEDYICPNCTI | 0.103 ± 0.092 |
| GYDPNALYCICRQPHNNRFMICCDRCEEWFHGDCVGISEARGHLLERNGEDYICPNCTI | 0.154 ± 0.18 |
| GYDPNALYCICRQPHNNRFMICCDRCEEWFHGDCVGISEARGILLERNGEDYICPNCTI | 0.081 ± 0.095 |
| GYDPNALYCICRQPHNNRFMICCDRCEEWFHGDCVGISEARGKLLERNGEDYICPNCTI | 0.057 ± 0.2 |
| GYDPNALYCICRQPHNNRFMICCDRCEEWFHGDCVGISEARGLLLERNGEDYICPNCTI | 0.029 ± 0.064 |
| GYDPNALYCICRQPHNNRFMICCDRCEEWFHGDCVGISEARGMLLERNGEDYICPNCTI | 0.017 ± 0.12 |
| GYDPNALYCICRQPHNNRFMICCDRCEEWFHGDCVGISEARGNLLERNGEDYICPNCTI | 0.044 ± 0.2 |

| Variant | abundance fitness |
| --- | --- |
| GYDPNALYCICRQPHNNRFMICCDRCEEWFHGDCVGISEARGPLLERNGEDYICPNCTI | 0.182 ± 0.078 |
| GYDPNALYCICRQPHNNRFMICCDRCEEWFHGDCVGISEARGQLLERNGEDYICPNCTI | 0.059 ± 0.14 |
| GYDPNALYCICRQPHNNRFMICCDRCEEWFHGDCVGISEARGSLLERNGEDYICPNCTI | 0.114 ± 0.059 |
| GYDPNALYCICRQPHNNRFMICCDRCEEWFHGDCVGISEARGTLLERNGEDYICPNCTI | -0.049 ± 0.11 |
| GYDPNALYCICRQPHNNRFMICCDRCEEWFHGDCVGISEARGVLLERNGEDYICPNCTI | -0.202 ± 0.097 |
| GYDPNALYCICRQPHNNRFMICCDRCEEWFHGDCVGISEARGWLLERNGEDYICPNCTI | -0.132 ± 0.17 |
| GYDPNALYCICRQPHNNRFMICCDRCEEWFHGDCVGISEARGYLLERNGEDYICPNCTI | -0.044 ± 0.089 |
| GYDPNALYCICRQPHNNRFMICCDRCEEWFHGDCVGISEARGRALERNGEDYICPNCTI | 0.03 ± 0.058 |
| GYDPNALYCICRQPHNNRFMICCDRCEEWFHGDCVGISEARGRCLERNGEDYICPNCTI | -0.026 ± 0.065 |
| GYDPNALYCICRQPHNNRFMICCDRCEEWFHGDCVGISEARGRDLERNGEDYICPNCTI | -0.063 ± 0.085 |
| GYDPNALYCICRQPHNNRFMICCDRCEEWFHGDCVGISEARGRFLERNGEDYICPNCTI | 0.097 ± 0.067 |
| GYDPNALYCICRQPHNNRFMICCDRCEEWFHGDCVGISEARGRGLERNGEDYICPNCTI | 0.08 ± 0.061 |
| GYDPNALYCICRQPHNNRFMICCDRCEEWFHGDCVGISEARGRHLERNGEDYICPNCTI | 0.108 ± 0.15 |
| GYDPNALYCICRQPHNNRFMICCDRCEEWFHGDCVGISEARGRILERNGEDYICPNCTI | -0.238 ± 0.12 |
| GYDPNALYCICRQPHNNRFMICCDRCEEWFHGDCVGISEARGRKLERNGEDYICPNCTI | 0.048 ± 0.079 |
| GYDPNALYCICRQPHNNRFMICCDRCEEWFHGDCVGISEARGRMLERNGEDYICPNCTI | 0.029 ± 0.14 |
| GYDPNALYCICRQPHNNRFMICCDRCEEWFHGDCVGISEARGRNLERNGEDYICPNCTI | 0.121 ± 0.065 |
| GYDPNALYCICRQPHNNRFMICCDRCEEWFHGDCVGISEARGRPLERNGEDYICPNCTI | 0.092 ± 0.06 |
| GYDPNALYCICRQPHNNRFMICCDRCEEWFHGDCVGISEARGRQLERNGEDYICPNCTI | 0.047 ± 0.081 |
| GYDPNALYCICRQPHNNRFMICCDRCEEWFHGDCVGISEARGRRLERNGEDYICPNCTI | 0.08 ± 0.049 |
| GYDPNALYCICRQPHNNRFMICCDRCEEWFHGDCVGISEARGRSLERNGEDYICPNCTI | 0.021 ± 0.056 |
| GYDPNALYCICRQPHNNRFMICCDRCEEWFHGDCVGISEARGRTLERNGEDYICPNCTI | -0.069 ± 0.11 |
